Data from patent US20210130436A1 (published 2021).
Numbering of substitutions follows the chain as printed. Names and notes keep the numbering of the source.

T1: TIGIT (UniProt Q495A1 22-244)
T1 construct: whole, on cells
T1 sequence (looked up): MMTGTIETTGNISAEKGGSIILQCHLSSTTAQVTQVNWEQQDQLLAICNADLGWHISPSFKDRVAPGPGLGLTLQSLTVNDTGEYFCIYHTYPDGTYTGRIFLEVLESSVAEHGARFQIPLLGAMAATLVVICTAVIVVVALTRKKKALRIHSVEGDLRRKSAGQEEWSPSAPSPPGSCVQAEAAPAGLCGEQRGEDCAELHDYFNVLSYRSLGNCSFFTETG

T2: CD226 (UniProt Q15762 19-336)
T2 construct: whole, on cells
T2 sequence (looked up): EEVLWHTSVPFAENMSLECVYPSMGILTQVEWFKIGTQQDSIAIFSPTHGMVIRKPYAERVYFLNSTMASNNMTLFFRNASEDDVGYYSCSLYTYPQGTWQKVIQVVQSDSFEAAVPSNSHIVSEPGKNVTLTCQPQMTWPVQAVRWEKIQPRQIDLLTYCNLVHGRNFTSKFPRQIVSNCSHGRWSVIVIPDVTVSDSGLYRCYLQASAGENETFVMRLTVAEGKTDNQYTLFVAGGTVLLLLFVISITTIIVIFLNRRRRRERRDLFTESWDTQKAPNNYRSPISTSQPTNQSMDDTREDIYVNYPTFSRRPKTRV

T3: CD96 (UniProt P40200 22-585, limits assumed)
T3 construct: whole, on cells
T3 sequence (looked up): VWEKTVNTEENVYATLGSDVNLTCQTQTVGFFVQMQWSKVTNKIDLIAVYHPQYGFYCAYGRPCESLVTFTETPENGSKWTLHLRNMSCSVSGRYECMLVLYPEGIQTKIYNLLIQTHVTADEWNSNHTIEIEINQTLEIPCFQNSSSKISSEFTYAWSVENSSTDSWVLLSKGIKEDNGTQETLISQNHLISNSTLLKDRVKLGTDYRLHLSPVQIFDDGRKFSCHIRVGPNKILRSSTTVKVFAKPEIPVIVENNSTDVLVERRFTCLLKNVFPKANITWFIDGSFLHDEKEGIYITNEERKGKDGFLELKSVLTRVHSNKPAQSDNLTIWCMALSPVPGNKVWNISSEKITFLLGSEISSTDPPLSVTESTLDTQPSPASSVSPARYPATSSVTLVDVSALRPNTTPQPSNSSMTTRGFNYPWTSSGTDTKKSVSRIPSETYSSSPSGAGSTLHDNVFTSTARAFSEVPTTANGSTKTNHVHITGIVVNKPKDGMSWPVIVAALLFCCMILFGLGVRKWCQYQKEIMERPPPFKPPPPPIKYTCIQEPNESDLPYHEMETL

B1: CD80 IgV-Fc T13R/Q27L/Q33L/E35D/T41S/M47V/N48K/V68M/L85M (Fc fusion, not shown: a dimerising Fc or GST)
chain: VIHVTKEVKEVARLSCGHNVSVEELALTRIYWLKDKKMVLSMMSGDVKIWPEYKNRTIFDITNNLSIMILALRPSDEGTYECVVMKYEKDAFKREHLAEVTLSVKAD
B2: CD80 IgV-Fc T13R/Q33R/E35D/M47L/V68M (Fc fusion, not shown: a dimerising Fc or GST)
chain: B1 chain with L27Q, L33R, S41T, V47L, K48N, M85L
B3: CD80 IgV-Fc T13R/Q33R/E35D/M38I/M47L/V68M/E95V/L97Q (Fc fusion, not shown: a dimerising Fc or GST)
chain: B1 chain with L27Q, L33R, M38I, S41T, V47L, K48N, M85L, E95V, L97Q
B4: CD80 IgV-Fc T13R/Q33L/E35D/M47V/T62S/V68M/L85M (Fc fusion, not shown: a dimerising Fc or GST)
chain: B1 chain with L27Q, S41T, K48N, T62S
B5: CD80 IgV-Fc T13R/Q33R/E35D/M38I/M47L/V68M/L85M (Fc fusion, not shown: a dimerising Fc or GST)
chain: B1 chain with L27Q, L33R, M38I, S41T, V47L, K48N
B6: CD80 IgV-Fc T13R/Q33L/E35D/M47L/V68M/L85M (Fc fusion, not shown: a dimerising Fc or GST)
chain: B1 chain with L27Q, S41T, V47L, K48N
B7: CD80 IgV-Fc T13R/Q33R/E35D/M47L/V68M/L85M (Fc fusion, not shown: a dimerising Fc or GST)
chain: B1 chain with L27Q, L33R, S41T, V47L, K48N
B8: CD80 E35D/D46V/M47V/N48K/V68M IgV-Fc (Fc fusion, not shown: small tags and cut ends; a dimerising Fc or GST)
chain: B1 chain with R13T, L27Q, L33Q, S41T, D46V, M85L
B9: CD80 E35D/M47V/N48K/V68M/L85Q IgV-Fc (Fc fusion, not shown: small tags and cut ends; a dimerising Fc or GST)
chain: B1 chain with R13T, L27Q, L33Q, S41T, M85Q
B10: CD80 E35D/D46V/M47V/V68M/L85Q IgV-Fc (Fc fusion, not shown: small tags and cut ends; a dimerising Fc or GST)
chain: B1 chain with R13T, L27Q, L33Q, S41T, D46V, K48N, M85Q
B11: CD80 E35D/N48K/K89N IgV-Fc (Fc fusion, not shown: small tags and cut ends; a dimerising Fc or GST)
chain: B1 chain with R13T, L27Q, L33Q, S41T, V47M, M68V, M85L, K89N
B12: CD80 E35D/M47V/V68M/L85Q/K89N IgV-Fc (Fc fusion, not shown: small tags and cut ends; a dimerising Fc or GST)
chain: B1 chain with R13T, L27Q, L33Q, S41T, K48N, M85Q, K89N
B13: CD80 M47V/N48K/V68M IgV-Fc (Fc fusion, not shown: small tags and cut ends; a dimerising Fc or GST)
chain: B1 chain with R13T, L27Q, L33Q, D35E, S41T, M85L
B14: CD80 M47V/N48K/K89N IgV-Fc (Fc fusion, not shown: small tags and cut ends; a dimerising Fc or GST)
chain: B1 chain with R13T, L27Q, L33Q, D35E, S41T, M68V, M85L, K89N
B15: CD80 N48K/V68M IgV-Fc (Fc fusion, not shown: small tags and cut ends; a dimerising Fc or GST)
chain: B1 chain with R13T, L27Q, L33Q, D35E, S41T, V47M, M85L
B16: CD80 E35D/M47V/N48K/K89N IgV-Fc (Fc fusion, not shown: small tags and cut ends; a dimerising Fc or GST)
chain: B1 chain with R13T, L27Q, L33Q, S41T, M68V, M85L, K89N
B17: CD155 S42A variant IgV-Fc fusion (Fc fusion, not shown: a dimerising Fc or GST)
chain: WPPPGTGDVVVQAPTQVPGFLGDSVTLPCYLQVPNMEVTHVAQLTWARHGESGSMAVFHQTQGPSYSESKRLEFVAARLGAELRNASLRMFGLRVEDEGNYTCLFVTFPQGSRSVDIWLRVL
B18: CD155 S42C/S52M/Q62F variant IgV-Fc fusion (Fc fusion, not shown: a dimerising Fc or GST)
chain: B17 chain with A42C, S52M, Q62F
B19: CD155 S42G/S52Q/L104E/G111R variant IgV-Fc fusion (Fc fusion, not shown: a dimerising Fc or GST)
chain: B17 chain with A42G, S52Q, L104E, G111R

What follows are binders tested against T4, human PD-L1 (human, UniProt Q9NZQ7 19-290) (assay: flow cytometry, CHO cells stably expressing PD-L1).
T4 construct: also called huPD-L1; CD274
T4 sequence (Q9NZQ7 19-290): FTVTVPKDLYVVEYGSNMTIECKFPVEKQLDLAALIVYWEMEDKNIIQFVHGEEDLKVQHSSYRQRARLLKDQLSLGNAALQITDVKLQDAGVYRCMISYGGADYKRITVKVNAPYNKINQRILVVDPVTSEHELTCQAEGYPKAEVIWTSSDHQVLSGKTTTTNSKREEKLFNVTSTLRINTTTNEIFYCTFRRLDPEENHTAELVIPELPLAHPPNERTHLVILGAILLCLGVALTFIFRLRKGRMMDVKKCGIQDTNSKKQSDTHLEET

Binder	Fold change to WT CD80 [fold]	MFI at 33.3 nM [MFI]
B1	63.5	3270
B2	285	14700
B3	372	19200
B4	77	3970
B5	21.5	1110
B6	62.7	3230
B7	368	18900

What follows are binders tested against T5, human CTLA4 expressed on CHO cells (human, UniProt P16410 36-223) (assay: flow cytometry, CHO cells stably expressing CTLA4, Fc fusion at 33.3 nM).
T5 construct: whole, on cells; Target on CHO cells stably expressing CTLA4; also called huCTLA4
T5 sequence (P16410 36-223): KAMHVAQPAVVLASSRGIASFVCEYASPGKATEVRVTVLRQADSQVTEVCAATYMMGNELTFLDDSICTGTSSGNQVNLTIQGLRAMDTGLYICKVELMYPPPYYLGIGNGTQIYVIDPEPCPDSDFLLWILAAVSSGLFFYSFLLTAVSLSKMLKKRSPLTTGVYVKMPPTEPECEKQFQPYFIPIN

Binder	MFI at 33.3 nM [MFI]
B8	23900
B9	26100
B10	36500
B11	34700
B12	30300
B13	34600
B14	42100
B15	2340
B16	43800

Each binder was assayed against T1, TIGIT (assay: flow cytometry on cells expressing TIGIT, Fc fusion at 100 nM).

Binder	MFI at 100 nM [MFI]
B17	1930
B18	1860
B19	2010

These binders were tested against T2, CD226 (assay: flow cytometry on cells expressing CD226, Fc fusion at 100 nM).

Binder	MFI at 100 nM [MFI]
B17	2190
B18	2080
B19	2020

These binders were tested against T6, human PD-L1 expressed on CHO cells (human, UniProt Q9NZQ7 19-290) (assay: flow cytometry, CHO cells stably expressing PD-L1; MFI relative to WT CD80 ECD-Fc (Abcam)).
T6 construct: whole, on cells; Target on CHO cells stably expressing PD-L1; also called huPD-L1
T6 sequence (Q9NZQ7 19-290): as the sequence (Q9NZQ7 19-290) above

Binder	Fold change to WT CD80 [fold]
B8	203
B9	81.9
B10	205
B11	45
B12	94.4
B13	113
B14	18.5
B15	5.9
B16	52.1

Each binder was assayed against T7, human CTLA-4 (human, UniProt P16410 36-223) (assay: flow cytometry, CHO cells stably expressing CTLA4).
T7 construct: also called huCTLA4
T7 sequence (P16410 36-223): as the sequence (P16410 36-223) above

Binder	Fold change to WT CD80 [fold]	MFI at 33.3 nM [MFI]
B1	0.1	109
B2	11.8	20700
B3	11.8	20700
B4	0.1	105
B5	12.6	22000
B6	0.1	141
B7	7.7	13400

Each binder was assayed against human CD28 (human, UniProt P10747 19-220) (assay: flow cytometry, Jurkat cells (CD28)).

Binder	Fold change to WT CD80 [fold]	MFI at 33.3 nM [MFI]
B1	0.5	14.6
B2	0.4	14.1
B3	35.4	1110
B4	0.5	16
B5	0.5	14.2
B6	0.5	15.7
B7	3.6	112

Each binder was assayed against T8, CD28 endogenously expressed on Jurkat/IL2 reporter cells (human, UniProt P10747 19-220) (assay: flow cytometry, Jurkat cells (CD28); MFI relative to WT CD80 ECD-Fc (Abcam)).
T8 construct: whole, on cells; Target on Jurkat cells; also called Jurkats (CD28)

Binder	Fold change to WT CD80 [fold]
B8	1.5
B9	0.2
B10	0.5
B11	0.6
B12	0.3
B13	0.9
B14	0.5
B15	0.2
B16	1

The binders below were run against T4, human PD-L1 (assay: flow cytometry; PD-L1 MFI over CD28 MFI).

Binder	Ratio of PDL1:CD28 [ratio]
B1	224
B2	1040
B3	17.2
B4	248
B5	77.9
B6	206
B7	169

The binders below were run against T8, CD28 endogenously expressed on … (assay: flow cytometry, Jurkat cells (CD28), Fc fusion at 33.3 nM).

Binder	MFI at 33.3 nM [MFI]
B8	1080
B9	118
B10	331
B11	411
B12	246
B13	641
B14	366
B15	118
B16	701

What follows are binders tested against T6, human PD-L1 expressed on CHO cells (assay: flow cytometry, CHO cells stably expressing PD-L1, Fc fusion at 33.3 nM).

Binder	MFI at 33.3 nM [MFI]
B8	25900
B9	10500
B10	26300
B11	5770
B12	12100
B13	14500
B14	2370
B15	754
B16	6670

These binders were tested against T6, human PD-L1 expressed on CHO cells (assay: flow cytometry; MFI on PD-L1 cells over MFI on CD28 (Jurkat) cells at 33.3 nM).

Binder	Ratio of PDL1:CD28 [ratio]
B8	23.9
B9	88.8
B10	79.4
B11	14
B12	49.1
B13	22.6
B14	6.5
B15	6.4
B16	9.5

The binders below were run against T5, human CTLA4 expressed on CHO cells (assay: flow cytometry, CHO cells stably expressing CTLA4; MFI relative to WT CD80 ECD-Fc (Abcam)).

Binder	Fold change to WT CD80 [fold]
B8	0.6
B9	0.6
B10	0.9
B11	0.9
B12	0.7
B13	0.9
B14	1
B15	0.1
B16	1.1

Each binder was assayed against T3, CD96 (assay: flow cytometry on cells expressing CD96, Fc fusion at 100 nM).

Binder	MFI at 100 nM [MFI]
B17	1620
B18	1480
